Assay results taken from patent US20230036655A1 (OTSUKA PHARMACEUTICAL, published 2023).

T1: mutant hGDF15 H6A (human, UniProt Q99988 197-308)
T1 construct: Expressed in ExpiCHO-S cells and used as culture supernatant in the ELISA
T1 chain: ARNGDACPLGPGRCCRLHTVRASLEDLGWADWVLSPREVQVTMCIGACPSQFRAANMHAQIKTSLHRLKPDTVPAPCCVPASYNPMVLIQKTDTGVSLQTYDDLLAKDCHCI

T2: mutant hGDF15 R13A (human, UniProt Q99988 197-308)
T2 construct: Expressed in ExpiCHO-S cells and used as culture supernatant in the ELISA
T2 chain: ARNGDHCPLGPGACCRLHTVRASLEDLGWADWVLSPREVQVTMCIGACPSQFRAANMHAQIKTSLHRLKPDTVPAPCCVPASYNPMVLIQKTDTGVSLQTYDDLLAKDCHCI

T3: mutant hGDF15 R16A (human, UniProt Q99988 197-308)
T3 construct: Expressed in ExpiCHO-S cells and used as culture supernatant in the ELISA
T3 chain: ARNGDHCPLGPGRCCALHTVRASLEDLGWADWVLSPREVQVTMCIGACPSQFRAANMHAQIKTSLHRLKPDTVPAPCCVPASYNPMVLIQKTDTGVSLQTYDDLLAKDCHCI

T4: mutant hGDF15 R13A, R16A (human, UniProt Q99988 197-308)
T4 construct: Expressed in ExpiCHO-S cells and used as culture supernatant in the ELISA
T4 chain: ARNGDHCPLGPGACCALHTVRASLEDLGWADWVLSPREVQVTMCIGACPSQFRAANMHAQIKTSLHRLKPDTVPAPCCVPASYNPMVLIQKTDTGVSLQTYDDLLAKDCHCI

T5: mutant hGDF15 3A (human, UniProt Q99988 197-308)
T5 construct: Expressed in ExpiCHO-S cells and used as culture supernatant
T5 chain: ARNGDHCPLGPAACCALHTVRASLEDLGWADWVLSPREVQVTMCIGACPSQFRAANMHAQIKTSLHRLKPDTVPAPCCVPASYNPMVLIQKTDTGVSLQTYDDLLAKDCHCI

T6: mutant hGDF15 4A (human, UniProt Q99988 197-308)
T6 construct: Expressed in ExpiCHO-S cells and used as culture supernatant
T6 chain: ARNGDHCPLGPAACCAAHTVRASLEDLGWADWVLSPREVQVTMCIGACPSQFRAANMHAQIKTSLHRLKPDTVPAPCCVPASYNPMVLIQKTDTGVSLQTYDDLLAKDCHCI

T7: mutant hGDF15 6A (human, UniProt Q99988 197-308)
T7 construct: Expressed in ExpiCHO-S cells and used as culture supernatant
T7 chain: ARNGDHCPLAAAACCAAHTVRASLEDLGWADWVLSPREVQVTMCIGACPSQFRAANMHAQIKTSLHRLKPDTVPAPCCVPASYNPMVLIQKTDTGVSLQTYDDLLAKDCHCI

T8: mutant hGDF15 8A (human, UniProt Q99988 197-308)
T8 construct: Expressed in ExpiCHO-S cells and used as culture supernatant
T8 chain: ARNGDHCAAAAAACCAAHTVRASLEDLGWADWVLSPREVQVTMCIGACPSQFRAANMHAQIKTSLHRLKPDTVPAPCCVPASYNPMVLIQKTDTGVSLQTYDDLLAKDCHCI

T9: mutant hGDF15 T72A (human, UniProt Q99988 197-308)
T9 construct: Expressed in ExpiCHO-S cells and used as culture supernatant in the ELISA
T9 chain: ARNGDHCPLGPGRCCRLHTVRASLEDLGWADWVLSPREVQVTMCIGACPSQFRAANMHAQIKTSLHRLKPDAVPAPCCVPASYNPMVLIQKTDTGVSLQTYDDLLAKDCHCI

T10: human GDF15 (hGDF15), mature, wild-type (human, UniProt Q99988 197-308)
T10 construct: Bought recombinant protein: R&D Systems 957-GD-025/CF in most assays, 9279-GD in the crystal and the GDF15/GFRAL/RET assay; It was biotinylated in the GFRAL assay; also called hGDF15 (WT); rhGDF15
T10 sequence: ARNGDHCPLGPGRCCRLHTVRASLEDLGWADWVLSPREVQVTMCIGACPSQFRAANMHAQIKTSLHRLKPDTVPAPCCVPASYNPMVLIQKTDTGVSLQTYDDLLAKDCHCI

T11: Peptide 1 (human, cysteine pairing not given here)
T11 construct: Synthesized by GenScript
T11 peptide: H-DHCPLGPGRCCRLH-OH

T12: Peptide 2 (human, cysteine pairing not given here)
T12 construct: Synthesized by GenScript
T12 peptide: Ac-DHCPLGPGRCCRLH-NH2


Assays:
[1] = target: T1, mutant hGDF15 H6A; test: sandwich ELISA: antibody immobilised, WT or mutant hGDF15, goat polyclonal detection; N=3, mean ± SD
[2] = target: T2, mutant hGDF15 R13A; test: as above
[3] = target: T3, mutant hGDF15 R16A; test: as above
[4] = target: T4, mutant hGDF15 R13A, R16A; test: as above
[5] = target: T5, mutant hGDF15 3A; test: as above
[6] = target: T6, mutant hGDF15 4A; test: as above
[7] = target: T7, mutant hGDF15 6A; test: as above
[8] = target: T8, mutant hGDF15 8A; test: as above
[9] = target: T9, mutant hGDF15 T72A; test: as above
[10] = target: T10, human GDF15 (hGDF15), mature, wild-type; test: sandwich ELISA: antibody immobilised, WT or mutant hGDF15, goat polyclonal detection; N=3, mean ± SD (reference)
[11] = target: T10, human GDF15 (hGDF15), mature, wild-type; test: competition ELISA: GFRAL immobilised, biotinylated GDF15 plus serially diluted antibody; inhibition of GDF15-GFRAL complex formation
Excerpt: First, the effect on GDF15 and GFRAL complex formation was examined (FIG. 12). GFRAL (R&D systems, 9697-GR) was immobilized on a plate, and GDF15 (R&D systems, 957-GD/CF) biotinylated with EZ-Link Micro NHS-PEG4-Bitinylation Kit (Thermo Fisher Scientific, 21955) and a serially diluted solution of an anti-GDF15 monoclonal antibody (Table 26) were reacted with the plate. Human IgG1, kappa-Isotype Control (Abcam) was used as a negative control antibody. GDF15 bound to GFRAL was detected using Pierce High Sensitivity Streptavidin-HRP (Thermo Fisher Scientific, 21130). TMB 1-Component Microwell Peroxidase Substrate, SureBlue (SeraCare Life Sciences) was used for color development, and the reaction was stopped by adding a stop solution (Wako). Absorbance was measured at 450 nm (OD450) using Emax (Molecular Devices). The % of control value was calculated according to Equation-1 from the OD450 value when each antibody was added, with the OD450 value when no antibody was added as a control. The IC50 value was obtained by calculating the inhibition rate from the % of control value thus obtained according to Equation-2 and using an Excel macro for IC50 calculation.

[12] = target: T10, human GDF15 (hGDF15), mature, wild-type; test: competition ELISA: GFRAL immobilised, biotinylated GDF15 plus serially diluted antibody; inhibition of GDF15-GFRAL complex formation (negative control)
[13] = target: T10, human GDF15 (hGDF15), mature, wild-type; test: competition (sandwich) ELISA: clone immobilised, hGDF15 captured; competitor: biotinylated HuMAB2
Protocol: HuMAB2 and the anti-GDF15 monoclonal antibodies shown in Table 5 (2 μg/mL) were added to 96-well plates at 100 μL/well to be immobilized on the plates, and reacted with 100 μL/well of hGDF15 (R&D Systems, 957-GD-025/CF) serially diluted from a concentration of 1 ng/ml. HuMAB2 biotinylated using EZ-Link Micro NHS-PEG4-Bitinylation Kit (Thermo Fisher Scientific, 21955) was used as the detection antibody (1 μg/mL as 100 μL/well). Whether or not sandwich ELISA was established was determined using Streptavidin-HRP conjugate in Human GDF15 ELISA Kit (R&D Systems, DY957). The detection antibody in Human GDF15 ELISA Kit (R&D Systems, DY957) (Table 5), which can establish sandwich ELISA with any monoclonal antibody, was used as a positive control antibody (PC) for sandwich ELISA.
Then, other antibodies obtained this time were tested to see whether each of these antibodies competes with HuMAB2 by the same method as described above.

[14] = target: T11, Peptide 1; test: ELISA, peptide immobilised, anti-human IgG-HRP detection
Protocol: (§1) Peptide 1 was unmodified at both ends, and Peptide 2 was synthesized by acetylating the amino terminus and amidating the carboxyl terminus for the purpose of mimicking the natural state because this region is an internal region within hGDF15. HuMAB2 antibody (10 μg/mL) was added at 100 μL/well to a 96-well plate on which a 10 μg/mL peptide solution had been added at 100 μL/well and the peptide had been immobilized, and thereby reacted with the peptide (25° C. for 3 hours). The bound HuMAB2 antibody was detected by adding a 5000-fold diluted anti-human IgG-HRP (Jackson ImmunoResearch, 109-035-008) at 100 μL/well and reacted at 25° C. for 1 hour. A plate on which hGDF15 (R&D Systems, 957-GD-025/CF) was immobilized was used as a control plate. The detection antibody in Human GDF15 ELISA Kit (R&D Systems, DY957) (Table 9) was used as a positive control antibody that reacts with the peptide, and Human IgG1 Isotype control (Abcam, ab206198) was used as a negative control antibody.

[15] = target: T12, Peptide 2; test: as above
Protocol: as §1

[16] = target: T6, mutant hGDF15 4A; test: sandwich ELISA, HuMAB2 immobilised, mutant hGDF15, goat polyclonal detection (relative value 0.0)
[17] = target: T7, mutant hGDF15 6A; test: as above
[18] = target: T5, mutant hGDF15 3A; test: sandwich ELISA, HuMAB2 immobilised, mutant hGDF15, goat polyclonal detection (relative value 0.4)
[19] = target: T8, mutant hGDF15 8A; test: sandwich ELISA, HuMAB2 immobilised, mutant hGDF15, goat polyclonal detection (relative value -0.1)

| relative binding (amount bound to 500 pg/mL hGDF15 = 100) (relative value (WT hGDF15 = 100)) [4] | IC50 [11] | relative binding (amount bound to 500 pg/mL hGDF15 = 100) [1] | relative binding (amount bound to 500 pg/mL hGDF15 = 100) [2] | relative binding (amount bound to 500 pg/mL hGDF15 = 100) [3] | relative binding (amount bound to 500 pg/mL hGDF15 = 100) [5] | relative binding (amount bound to 500 pg/mL hGDF15 = 100) [6] | relative binding (amount bound to 500 pg/mL hGDF15 = 100) [7] | relative binding (amount bound to 500 pg/mL hGDF15 = 100) [8] | relative binding (amount bound to 500 pg/mL hGDF15 = 100) [9] | Molecule | also measured |
| --- | --- | --- | --- | --- | --- | --- | --- | --- | --- | --- | --- |
| 80.6 | 11.1 nM |  |  |  |  |  |  |  |  | MAB957 (antibody) | relative binding (amount bound to 500 pg/mL hGDF15 = 100) (relative value (WT hGDF15 = 100)) [1]: 88.3; relative binding (amount bound to 500 pg/mL hGDF15 = 100) (relative value (WT hGDF15 = 100)) [2]: 89.9; relative binding (amount bound to 500 pg/mL hGDF15 = 100) (relative value (WT hGDF15 = 100)) [3]: 93.9; relative binding (amount bound to 500 pg/mL hGDF15 = 100) (relative value (WT hGDF15 = 100)) [5]: 99; relative binding (amount bound to 500 pg/mL hGDF15 = 100) (relative value (WT hGDF15 = 100)) [6]: 84.1; relative binding (amount bound to 500 pg/mL hGDF15 = 100) (relative value (WT hGDF15 = 100)) [7]: 74.3; relative binding (amount bound to 500 pg/mL hGDF15 = 100) (relative value (WT hGDF15 = 100)) [8]: 69.2; relative binding (amount bound to 500 pg/mL hGDF15 = 100) (relative value (WT hGDF15 = 100)) [9]: 101; relative binding (amount bound to 500 pg/mL hGDF15 = 100) (relative value (WT hGDF15 = 100)) [10]: 100 |
|  |  |  |  |  |  |  |  |  |  | Human IgG1 Isotype control (antibody) | IC50 [12]: > 500 nM |
|  | 12 nM | 87.7 relative value (WT hGDF15 = 100) | 97.2 relative value (WT hGDF15 = 100) | 101 relative value (WT hGDF15 = 100) | 110 relative value (WT hGDF15 = 100) | 95 relative value (WT hGDF15 = 100) | 83.9 relative value (WT hGDF15 = 100) | 78.8 relative value (WT hGDF15 = 100) | 104 relative value (WT hGDF15 = 100) | MAB17 (antibody, V domains shown, Mouse monoclonal antibody from hybridoma; also called clone MAB17) VH: QVTLKESGPGILQPSQTLSLTCSFSGFSLNTHGMGVGWIRQPSGKGLEWLANIWWNDDKYYNSALKSRLTLSKDTSNNQVFLKISSVDTADTATYFCAQVAWDWFAYWGQGTLVTIS VL: QIVLTQSPAIMSASLGEEITLTCSASSSVRYMHWYQQKSGTSPKVLIYSTSNLASGVPSRFSGSGSGTFYSLTISSVEAEDAADYYCHQWSSYPWTFGGGTKLEIKR | Inhibition % [13]: 0%; relative binding (amount bound to 500 pg/mL hGDF15 = 100) [4]: 83 relative value (WT hGDF15 = 100) |
| 4.9 | > 500 nM | 136 relative value (WT hGDF15 = 100) | 17.8 relative value (WT hGDF15 = 100) | 24 relative value (WT hGDF15 = 100) | 0.4 relative value (WT hGDF15 = 100) | 0 relative value (WT hGDF15 = 100) | 0 relative value (WT hGDF15 = 100) | -0.1 relative value (WT hGDF15 = 100) | 101 relative value (WT hGDF15 = 100) | HuMAB2 (antibody, human IgG1, kappa, V domains shown, Humanized MAB2 joined to the constant region of bevacizumab; The printed copies of the L chain differ from each other; also called HuMAB2 antibody; H3delK/L7) VH: QVQLQESGPGLVKPSETLSLTCTVSGFSINSDCYWIWIRQPPGKGLEYIGYTFYSGITYYNPSLASRTTISRDTSKNQFSLKLSSVTAADTAVYYCARDCDYAMDYWGQGTLVTVSS VL: DIQMTQSPSSLSASVGDRVTITCRASQDISNYLNWYQQKPGKAVKLLIHYTSTLHSGVPSRFSGSGSGTDYTLTISSLQPEDFATYFCQQGNTLPWTFGQGTKLEIKR | binding result [14]: no binding (tested: 10 µg/mL); binding result [15]: no binding (tested: 10 µg/mL); binding result [16]: no binding; binding result [17]: no binding; binding result [18]: no binding; binding result [19]: no binding |
